The record followed here is PMC4811204 (Nature structural & molecular biology, 2013).

First the molecules themselves.
T1: MBP-TTP lacking amino acids 179–192 (TTP-MUT1) (human, UniProt P26651 1-326, lacking amino acids 179–192)
T1 sequence (looked up): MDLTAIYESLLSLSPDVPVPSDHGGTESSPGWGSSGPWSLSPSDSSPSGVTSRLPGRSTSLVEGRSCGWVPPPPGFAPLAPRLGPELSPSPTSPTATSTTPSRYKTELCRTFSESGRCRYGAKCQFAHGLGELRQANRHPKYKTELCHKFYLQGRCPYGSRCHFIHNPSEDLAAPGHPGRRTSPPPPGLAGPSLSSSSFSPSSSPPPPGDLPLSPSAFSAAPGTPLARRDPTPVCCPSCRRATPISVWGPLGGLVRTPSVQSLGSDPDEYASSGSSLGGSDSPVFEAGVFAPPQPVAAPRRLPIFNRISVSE

B1: MBP-tagged TTP-CTD with Asn320 mutated to alanine (domain or fragment, human, UniProt P26651 174-326, looked up)
chain: APGHPPVLRQSISFSGLPSGRRTSPPPPGLAGPSLSSSSFSPSSSPPPPGDLPLSPSAFSAAPGTPLARRDPTPVCCPSCRRATPISVWGPLGGLVRTPSVQSLGSDPDEYASSGSSLGGSDSPVFEAGVFAPPQPVAAPRRLPIFARISVSE
B2: MBP-fused full-length human Tristetraprolin (TTP) (natural protein, UniProt P26651 1-326, looked up)
chain: MDLTAIYESLLSLSPDVPVPSDHGGTESSPGWGSSGPWSLSPSDSSPSGVTSRLPGRSTSLVEGRSCGWVPPPPGFAPLAPRLGPELSPSPTSPTATSTTPSRYKTELCRTFSESGRCRYGAKCQFAHGLGELRQANRHPKYKTELCHKFYLQGRCPYGSRCHFIHNPSEDLAAPGHPPVLRQSISFSGLPSGRRTSPPPPGLAGPSLSSSSFSPSSSPPPPGDLPLSPSAFSAAPGTPLARRDPTPVCCPSCRRATPISVWGPLGGLVRTPSVQSLGSDPDEYASSGSSLGGSDSPVFEAGVFAPPQPVAAPRRLPIFNRISVSE
B3: GST-tagged CNOT1(800–1015) (domain or fragment, human, UniProt A5YKK6-2 800-1015, looked up)
chain: NNDPFVQRKLGTSGLNQPTFQQTDLSQVWPEANQHFSKEIDDEANSYFQRIYNHPPHPTMSVDEVLEMLQRFKDSTIKREREVFNCMLRNLFEEYRFFPQYPDKELHITACLFGGIIEKGLVTYMALGLALRYVLEALRKPFGSKMYYFGIAALDRFKNRLKDYPQYCQHLASISHFMQFPHHLQEYIEYGQQSRDPPVKMQGSITTPGSIALAQA

In experiment [1] the target is CNOT1(800–999), TTP-interacting fragment of CNOT1 (human, UniProt A5YKK6-2 800-999). The experiment is described as follows: ITC.
In experiment [2] the target is B3. As to the kind of experiment: pull-down.
For experiment [3], the target named is GST-fused CNOT1 fragment, residues 727–1266 (human, UniProt A5YKK6-2 727-1266). As to the kind of experiment: pull-down.
Experiment [4] addresses T1, MBP-TTP lacking amino acids 179–192 …. The experiment is described as follows: pull-down.
The target in experiment [5] is B2. The experiment is described as follows: pull-down.

Where no end group is shown, it is not given here. [ ]: non-standard residue; d: D form. pS = N[C@@H](COP(=O)(O)O)C(=O)O

As to APRRLPIANRISVSE [TTP peptide 312–326, Phe319Ala mutant], the Kd in experiment [1] is around 7 mM.
For the molecule B1, the binding result in experiment [2] is “binds”.
In experiment [1], APRRLPIFNRI[pS]VSE [TTP-CIM peptide 312–326 containing phospho-Ser323] gave a Kd of around 0.625 mM.
For B2, the binding result in experiment [3] is “binds”.
Take B3: the binding result in experiment [4] and in experiment [5] was “binds” throughout.
